Target: inactive (non-phosphorylated) HIS-tagged MAPK14
Sequence (chain, as listed by the source): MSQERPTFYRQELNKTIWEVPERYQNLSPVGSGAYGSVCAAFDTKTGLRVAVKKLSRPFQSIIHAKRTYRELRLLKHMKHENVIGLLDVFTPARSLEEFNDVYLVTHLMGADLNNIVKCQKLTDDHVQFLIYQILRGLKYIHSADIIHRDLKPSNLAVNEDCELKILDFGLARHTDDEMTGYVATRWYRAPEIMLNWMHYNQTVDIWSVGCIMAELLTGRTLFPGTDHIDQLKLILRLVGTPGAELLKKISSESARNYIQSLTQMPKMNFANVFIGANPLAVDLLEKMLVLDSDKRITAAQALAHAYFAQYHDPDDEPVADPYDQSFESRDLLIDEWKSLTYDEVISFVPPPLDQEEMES

B1: MKK6 (no-tag upstream kinase) (protein)
chain: MSQSKGKKRNPGLKIPKEAFEQPQTSSTPPRDLDSKACISIGNQNFEVKADDLEPIMELGRGAYGVVEKMRHVPSGQIMAVKRIRATVNSQEQKRLLMDLDISMRTVDCPFTVTFYGALFREGDVWICMELMDTSLDKFYKQVIDKGQTIPEDILGKIAVSIVKALEHLHSKLSVIHRDVKPSNVLINALGQVKMCDFGISGYLVDSVAKTIDAGCKPYMAPERINPELNQKGYSVKSDIWSLGITMIELAILRFPYDSWGTPFQQLKQVVEEPSPQLPADKFSAEFVDFTSQCLKKNSKERPTYPELMQHPFFTLHESKGTDVASFVKLILGD
- amount of phosphorylated MAPK14, Western blot with the p38 antibody, at decreasing MKK6 plasmid (FIG. 3): as the concentration of the MKK6 plasmid present in the reaction was decreased, the amount of phosphorylation MAPK14 similarly decreased
- phosphorylation of MAPK14, Western blot with anti-phospho-p38 antibody (FIG. 2): co-expression of MAPK14 with MKK6 in the presence of an HEK 293 cell extract greatly enhances the phosphorylation of proteins present in the reaction

Source: patent US20070224662
